In publication PMC7232166, “Expression of Pleurotus ostreatus Laccase Gene in Pichia pastoris and Its Degradation of Corn Stover Lignin” (Microorganisms, 2020):

What was measured:
Experiment in all cases: purified protein
purified protein [1] = substrate: COc1ccccc1O; settings: citrate-phosphate buffer, optimum pH 3.5, 25 °C stated for activity assay
purified protein [2] = substrate: CCn1c(=NN=c2sc3cc(S(=O)(=O)O)ccc3n2CC)sc2cc(S(=O)(=O)O)ccc21; type: biochemical, Pleurotus ostreatus; settings: citrate-phosphate buffer, optimum pH 3.0, 25 °C stated for activity assay
purified protein [3] = substrate: COc1cccc(OC)c1O; type: biochemical, Pleurotus ostreatus; settings: citrate-phosphate buffer, optimum pH 3.0, 25 °C stated for activity assay

B1: Recombinant laccase X33-Lac-2 (Pleurotus ostreatus) (protein)
chain: AIGPAGNMYIVNEDVSPDGFARSAVVARSVPATDPTPATASIPGVLVQGNKGDNFQLNVVNQLSDTTMLKTTSIHWHGFFQAGSSWADGPAFVTQCPVASGDSFLYNFNVPDQAGTFWYHSHLSTQYCDGLRGPFVVYDPSDPHLSLYDIDNADTVITLEDWYHIVAPQNAAIPTPDSTLINGKGRYAGGPTSPLAIINVESNKRYRFRLVSMSCDPNFTFSIDGHSLLVIEADAVNIVPITVDSIQIFAGQRYSFVLTANQAVDNYWIRANPNLGSTGFVGGINSAILRYAGATEDDPTTTSSTSTPLLETNLVPLENPGAPGPPVPGGADININLAMAFDFTTFELTINGVPFLPPTAPVLLQILSGASTAASLLPSGSIYELEANKVVEISMPALAVGGPHPFHLHGHTFDVIRSAGSTTYNFDTPARRDVVNTGTGANDNVTIRFVTDNPGPWFLHCHIDWHLEIGLAVVFAEDVTSISAPPAAWDDLCPIYNALSDNDKGGIVPS
notes: about 57 kDa on SDS-PAGE
Km (purified protein [1]): 302.4 ± 26.0 µM
Km (purified protein [2]): 13.6 ± 2.9 µM
kcat (purified protein [2]): 311 ± 21 s⁻¹
kcat/Km (purified protein [2]): 2.28e+07 M⁻¹ s⁻¹
Km (purified protein [3]): 79.2 ± 18.3 µM
kcat (purified protein [3]): 19.8 ± 1.1 s⁻¹
kcat/Km (purified protein [3]): 250000 M⁻¹ s⁻¹
